Measurements reported in paper PMC9813972.

Molecular target: AbTFM (A. baumannii tautomerase family member) (Acinetobacter baumannii)
Experiment: crystal structure; sitting-drop crystals at 296 K from 0.2 M ammonium nitrate, PEG 3350; protein in 20 mM HEPES-NaOH pH 6.8, 150 mM NaCl; space group H3, one subunit in the asymmetric unit, trimer by the crystallographic threefold axis

With “AbTFM (A. baumannii tautomerase family member) (natural protein)” as the substance, how does the stoichiometry N read?
Its stoichiometry N is 3.
